Source: the supplement of paper PMC11246515
± gives the standard deviation of the averaged measurements.

Test: total protein half-life in vivo (active degradation + dilution); higher = more stable protein
[1] = E. coli NCM3722 delta-clpP delta-lon delta-hslV, growth: N-lim chemostat, doubling time 6 h
[2] = E. coli NCM3722 delta-hslV, growth: N-lim chemostat, doubling time 6 h
[3] = E. coli NCM3722 delta-lon, growth: N-lim chemostat, doubling time 6 h
[4] = E. coli NCM3722 delta-smpB, growth: N-lim chemostat, doubling time 6 h
[5] = wild type E. coli NCM3722, growth: C-lim chemostat, doubling time 3 h
[6] = wild type E. coli NCM3722, growth: C-lim chemostat, doubling time 6 h
[7] = wild type E. coli NCM3722, growth: C-lim chemostat, doubling time 12 h
[8] = wild type E. coli NCM3722, growth: N-lim chemostat, doubling time 6 h
[9] = wild type E. coli NCM3722, growth: N-lim chemostat, doubling time 12 h
[10] = wild type E. coli NCM3722, growth: P-lim chemostat, doubling time 6 h
[11] = wild type E. coli NCM3722, growth: P-lim chemostat, doubling time 12 h
[12] = E. coli NCM3722 delta-clpP, growth: N-lim chemostat, doubling time 6 h

Sequence | total protein half-life in vivo [1] [h] | total protein half-life in vivo [2] [h] | total protein half-life in vivo [3] [h] | total protein half-life in vivo [4] [h] | total protein half-life in vivo [5] [h] | total protein half-life in vivo [6] [h] | total protein half-life in vivo [7] [h] | total protein half-life in vivo [8] [h] | total protein half-life in vivo [9] [h] | total protein half-life in vivo [10] [h] | total protein half-life in vivo [11] [h] | total protein half-life in vivo [12] [h]
MDYEFLRDITGVVKVRMSMGHEVVGHWFNEEVKENLALLDEVEQAAHALKGSERSWQRAGHEYTLWMDGEEVMVRANQLEFAGDEMEEGMNYYDEESLSLCGVEDFLQVVAAYRNFVQQK [P0A8E5] | 4.89 ± 0.087 | 1.63 ± 0.034 | 2 ± 0.21 | 1.97 ± 0.039 | 2.18 ± 0.056 | 3.78 ± 0.4 | 6.328 ± 0.025 | 1.78 | 2.8 | 2.44 ± 0.26 | 4.45 ± 0.61 | –
MLKKILLLALLPAIAFAEELPAPVKAIEKQGITIIKTFDAPGGMKGYLGKYQDMGVTIYLTPDGKHAISGYMYNEKGENLSNTLIEKEIYAPAGREMWQRMEQSHWLLDGKKDAPVIVYVFADPFCPYCKQFWQQARPWVDSGKVQLRTLLVGVIKPESPATAAAILASKDPAKTWQQYEASGGKLKLNVPANVSTEQMKVLSDNEKLMDDLGANVTPAIYYMSKENTLQQAVGLPDQKTLNIIMGNK | 5.17 ± 0.63 | 6.05 ± 0.24 | 6.69 ± 1 | 5.98 ± 0.33 | 3.016 ± 0.006 | 6.29 ± 0.74 | 11.3 ± 1.4 | 6.16 ± 0.33 | 12.6 ± 0.62 | 5.78 ± 0.55 | 12.5 ± 0.27 | 5.5 ± 0.14
MNNEPLRPDPDRLLEQTAAPHRGKLKVFFGACAGVGKTWAMLAEAQRLRAQGLDIVVGVVETHGRKDTAAMLEGLAVLPLKRQAYRGRHISEFDLDAALARRPALILMDELAHSNAPGSRHPKRWQDIEELLEAGIDVFTTVNVQHLESLNDVVSGVTGIQVRETVPDPFFDAADDVVLVDLPPDDLRQRLKEGKVYIAGQAERAIEHFFRKGNLIALRELALRRTADRVDEQMRAWRGHPGEEKVWHTRDAILLCIGHNTGSEKLVRAAARLASRLGSVWHAVYVETPALHRLPEKKRRAILSALRLAQELGAETATLSDPAEEKAVVRYAREHNLGKIILGRPASRRWWRRETFADRLARIAPDLDQVLVALDEPPARTINNAPDNRSFKDKWRVQIQGCVVAAALCAVITLIAMQWLMAFDAANLVMLYLLGVVVVALFYGRWPSVVATVINVVSFDLFFIAPRGTLAVSDVQYLLTFAVMLTVGLVIGNLTAGVRYQARVARYREQRTRHLYEMSKALAVGRSPQDIAATSEQFIASTFHARSQVLLPDDNGKLQPLTHPQGMTPWDDAIAQWSFDKGLPAGAGTDTLPGVPYQILPLKSGEKTYGLVVVEPGNLRQLMIPEQQRLLETFTLLVANALERLTLTASEEQARMASEREQIRNALLAALSHDLRTPLTVLFGQAEILTLDLASEGSPHARQASEIRQHVLNTTRLVNNLLDMARIQSGGFNLKKEWLTLEEVVGSALQMLEPGLSSPINLSLPEPLTLIHVDGPLFERVLINLLENAVKYAGAQAEIGIDAHVEGENLQLDVWDNGPGLPPGQEQTIFDKFARGNKESAVPGVGLGLAICRAIVDVHGGTITAFNRPEGGACFRVTLPQQTAPELEEFHEDM | 6.66 ± 0.19 | 6.32 ± 0.48 | 5.21 ± 0.13 | 5.88 ± 0.37 | 3.44 ± 0.035 | 6 ± 0.74 | 12.1 ± 1 | 5.56 ± 0.21 | 10.7 ± 0.66 | 6.348 ± 0.059 | 11.6 ± 0.51 | 6.31 ± 0.4
MARLFTLSESKYYLMALDAGTGSIRAVIFDLEGNQIAVGQAEWRHLAVPDVPGSMEFDLNKNWQLACECMRQALHNAGIAPEYIAAVSACSMREGIVLYNNEGAPIWACANVDARAAREVSELKELHNNTFENEVYRATGQTLALSAIPRLLWLAHHRSDIYRQASTITMISDWLAYMLSGELAVDPSNAGTTGLLDLTTRDWKPALLDMAGLRADILSPVKETGTLLGVVSSQAAELCGLKAGTPVVVGGGDVQLGCLGLGVVRPAQTAVLGGTFWQQVVNLAAPVTDPEMNVRVNPHVIPGMVQAESISFFTGLTMRWFRDAFCAEEKLIAERLGIDTYTLLEEMASRVPPGSWGVMPIFSDRMRFKTWYHAAPSFINLSIDPDKCNKATLFRALEENAAIVSACNLQQIADFSNIHPSSLVFAGGGSKGKLWSQILADVSGLPVNIPVVKEATALGCAIAAGVGAGIFSSMAETGERLVRWERTHTPDPEKHELYQDSRDKWQAVYQDQLGLVDHGLTTSLWKAPGL | 4.78 ± 0.065 | – | 2.49 | 1.27 | 1.55 ± 0.35 | 2.83 ± 0.42 | 2.92 ± 0.031 | – | – | – | – | 1.36
MKSKVLALLIPALLAAGAAHAAEVYNKDGNKLDLYGKVDGLHYFSDNSAKDGDQSYARLGFKGETQINDQLTGYGQWEYNIQANNTESSKNQSWTRLAFAGLKFADYGSFDYGRNYGVMYDIEGWTDMLPEFGGDSYTNADNFMTGRANGVATYRNTDFFGLVNGLNFAVQYQGNNEGASNGQEGTNNGRDVRHENGDGWGLSTTYDLGMGFSAGAAYTSSDRTNDQVNHTAAGGDKADAWTAGLKYDANNIYLATMYSETRNMTPFGDSDYAVANKTQNFEVTAQYQFDFGLRPAVSFLMSKGRDLHAAGGADNPAGVDDKDLVKYADIGATYYFNKNMSTYVDYKINLLDEDDSFYAANGISTDDIVALGLVYQF | – | – | – | – | 3.6 | 6.9 | 11.9 | – | – | – | – | –
MQTFQADLAIVGAGGAGLRAAIAAAQANPNAKIALISKVYPMRSHTVAAEGGSAAVAQDHDSFEYHFHDTVAGGDWLCEQDVVDYFVHHCPTEMTQLELWGCPWSRRPDGSVNVRRFGGMKIERTWFAADKTGFHMLHTLFQTSLQFPQIQRFDEHFVLDILVDDGHVRGLVAMNMMEGTLVQIRANAVVMATGGAGRVYRYNTNGGIVTGDGMGMALSHGVPLRDMEFVQYHPTGLPGSGILMTEGCRGEGGILVNKNGYRYLQDYGMGPETPLGEPKNKYMELGPRDKVSQAFWHEWRKGNTISTPRGDVVYLDLRHLGEKKLHERLPFICELAKAYVGVDPVKEPIPVRPTAHYTMGGIETDQNCETRIKGLFAVGECSSVGLHGANRLGSNSLAELVVFGRLAGEQATERAATAGNGNEAAIEAQAAGVEQRLKDLVNQDGGENWAKIRDEMGLAMEEGCGIYRTPELMQKTIDKLAELQERFKRVRITDTSSVFNTDLLYTIELGHGLNVAECMAHSAMARKESRGAHQRLDEGCTERDDVNFLKHTLAFRDADGTTRLEYSDVKITTLPPAKRVYGGEADAADKAEAANKKEKANG | 5.99 ± 0.19 | 6.59 ± 0.5 | 6.24 ± 0.66 | 5.45 ± 0.11 | 2.97 ± 0.033 | 6.38 ± 0.42 | 12.1 ± 1.9 | 6.2 ± 0.28 | 11.3 ± 1.7 | 6.03 ± 0.064 | 13.4 ± 0.38 | 5.68 ± 0.083
MKIGTQNQAFFPENILEKFRYIKEMGFDGFEIDGKLLVNNIEEVKAAIKETGLPVTTACGGYDGWIGDFIEERRLNGLKQIERILEALAEVGGKGIVVPAAWGMFTFRLPPMTSPRSLDGDRKMVSDSLRVLEQVAARTGTVVYLEPLNRYQDHMINTLADARRYIVENDLKHVQIIGDFYHMNIEEDNLAQALHDNRDLLGHVHIADNHRYQPGSGTLDFHALFEQLRADNYQGYVVYEGRIRAEDPAQAYRDSLAWLRTC | 5.87 ± 0.64 | – | – | – | – | – | – | – | – | – | – | –
